Experimental data from US20230312709A1.

Target: human platelets (CD61 APC-positive gate P1)
Assay: flow cytometry on diluted human whole blood, platelets gated as CD61 APC-positive (P1), PE goat anti-human IgG Fc secondary [panel hIgG4 iso : P1]

V2R (% of CD61-positive P1 events right of the PE gate): 0.11%
Substance: hIgG4-isotype control (antibody)
